Results as given in IntAct's records for PubMed 25910212.

B1: SH2 domain-containing protein 1A (Homo sapiens), O60880 (parent)
chain: MDAVAVYHGKISRETGEKLLLATGLDGSYLLRDSESVPGVYCLCVLYHGYIYTYRVSQTETGSWSAETAPGVHKRYFRKIKNLISAFQKPDQGIVIPLQYPVEKKSSARSTQGTTGIREDPDVCLKAP
partner: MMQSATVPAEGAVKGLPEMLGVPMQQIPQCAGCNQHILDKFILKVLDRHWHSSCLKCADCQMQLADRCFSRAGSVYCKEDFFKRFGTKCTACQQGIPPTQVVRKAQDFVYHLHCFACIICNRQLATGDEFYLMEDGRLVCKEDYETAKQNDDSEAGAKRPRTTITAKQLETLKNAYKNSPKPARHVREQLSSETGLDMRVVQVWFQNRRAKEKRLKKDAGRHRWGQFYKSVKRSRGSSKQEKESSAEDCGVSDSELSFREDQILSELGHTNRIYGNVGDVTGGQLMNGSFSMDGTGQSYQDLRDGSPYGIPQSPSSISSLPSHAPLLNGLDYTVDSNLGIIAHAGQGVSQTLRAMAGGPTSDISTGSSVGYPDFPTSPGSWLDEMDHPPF
B2: Sulfotransferase 2B1 (Homo sapiens), O00204 (parent)
chain: MDGPAEPQIPGLWDTYEDDISEISQKLPGEYFRYKGVPFPVGLYSLESISLAENTQDVRDDDIFIITYPKSGTTWMIEIICLILKEGDPSWIRSVPIWERAPWCETIVGAFSLPDQYSPRLMSSHLPIQIFTKAFFSSKAKVIYMGRNPRDVVVSLYHYSKIAGQLKDPGTPDQFLRDFLKGEVQFGSWFDHIKGWLRMKGKDNFLFITYEELQQDLQGSVERICGFLGRPLGKEALGSVVAHSTFSAMKANTMSNYTLLPPSLLDHRRGAFLRKGVCGDWKNHFTVAQSEAFDRAYRKQMRGMPTFPWDEDPEEDGSPDPEPSPEPEPKPSLEPNTSLEREPRPNSSPSPSPGQASETPHPRPS
B3: Acetylcholine receptor subunit gamma (Homo sapiens), P07510-2 (parent)
chain: MHGGQGPLLLLLLLAVCLGAQGRNQEERLLADLMQNYDPNLRPAERDSDVVNVSLKLTLTNLISLNEREEALTTNVWIEMQWCDYRLRWDPRDYEGLWVLRVPSTMVWRPDIVLENKSQTYSTNEIDLQLSQEDGQTIEWIFIDPEAFTENGEWAIQHRPAKMLLDPAAPAQEAGHQKVVFYLLIQRKPLFYVINIIAPCVLISSVAILIHFLPAKAGGQKCTVAINVLLAQTVFLFLVAKKVPETSQAVPLISKYLTFLLVVTILIVVNAVVVLNVSLRSPHTHSMARGVRKVFLRLLPQLLRMHVRPLAPAAVQDTQSRLQNGSSGWSITTGEEVALCLPRSELLFQQWQRQGLVAAALEKLEKGPELGLSQFCGSLKQAAPAIQACVEACNLIACARHQQSHFDNGNEEWFLVGRVLDRVCFLAMLSLFICGTAGIFLMAHYNRVPALPFPGDPRPYLPSPD

Variants of: B1
Conditions: with lhx4_human LHX4, Q969G2

| Variant | effect of a mutation on the interaction |
| --- | --- |
| P101L | with no effect |
| R32T | with no effect |

Variants of: B2
Conditions: with st1b1_human SULT1B1, O43704
Sequence of st1b1_human SULT1B1, O43704 (O43704 whole entry): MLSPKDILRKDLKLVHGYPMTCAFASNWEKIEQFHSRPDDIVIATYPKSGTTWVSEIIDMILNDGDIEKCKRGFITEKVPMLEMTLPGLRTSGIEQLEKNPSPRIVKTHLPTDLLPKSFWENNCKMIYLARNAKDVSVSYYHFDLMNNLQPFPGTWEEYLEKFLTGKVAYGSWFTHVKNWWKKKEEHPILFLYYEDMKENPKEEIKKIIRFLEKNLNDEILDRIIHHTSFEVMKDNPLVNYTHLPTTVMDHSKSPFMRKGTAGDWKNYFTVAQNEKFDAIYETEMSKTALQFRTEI

| Variant | effect of a mutation on the interaction |
| --- | --- |
| D191N | with no effect |
| R230H | with no effect |

Variants of: B2
Conditions: with st1a1_human SULT1A1, P50225
Sequence of st1a1_human SULT1A1, P50225 (P50225 whole entry, looked up): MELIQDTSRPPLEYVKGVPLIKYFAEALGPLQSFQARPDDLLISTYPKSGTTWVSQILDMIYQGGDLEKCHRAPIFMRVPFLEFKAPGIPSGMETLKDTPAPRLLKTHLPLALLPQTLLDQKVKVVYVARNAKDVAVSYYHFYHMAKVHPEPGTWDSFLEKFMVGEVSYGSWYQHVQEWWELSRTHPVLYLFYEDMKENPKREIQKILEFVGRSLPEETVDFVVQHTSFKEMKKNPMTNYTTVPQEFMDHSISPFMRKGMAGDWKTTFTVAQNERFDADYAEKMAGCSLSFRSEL

| Variant | effect of a mutation on the interaction |
| --- | --- |
| D191N | with no effect |
| R230H | with no effect |

Variants of: B3
Conditions: with mdfi_human MDFI

| Variant | effect of a mutation on the interaction |
| --- | --- |
| V107G | disrupting interaction strength |

Variants of: B3
Conditions: with nt2na_human NOTCH2NLA

| Variant | effect of a mutation on the interaction |
| --- | --- |
| V107G | disrupting interaction strength |

Variants of: B3
Conditions: with k1h1_human KRT31, Q15323
Sequence of k1h1_human KRT31, Q15323 (Q15323 whole entry): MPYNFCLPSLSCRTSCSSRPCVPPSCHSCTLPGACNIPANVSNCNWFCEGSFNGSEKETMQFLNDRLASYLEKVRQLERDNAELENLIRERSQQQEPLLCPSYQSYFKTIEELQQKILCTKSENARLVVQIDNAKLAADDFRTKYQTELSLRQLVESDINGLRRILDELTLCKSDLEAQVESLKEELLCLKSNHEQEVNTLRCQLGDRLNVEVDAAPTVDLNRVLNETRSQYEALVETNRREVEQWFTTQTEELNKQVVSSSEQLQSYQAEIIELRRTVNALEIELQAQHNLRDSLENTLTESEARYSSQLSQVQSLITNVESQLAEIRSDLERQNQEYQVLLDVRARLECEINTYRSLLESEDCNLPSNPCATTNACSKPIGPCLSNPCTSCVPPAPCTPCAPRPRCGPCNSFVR

| Variant | effect of a mutation on the interaction |
| --- | --- |
| V107G | disrupting interaction strength |

Variants of: B3
Conditions: with meox2_human MEOX2, P50222
Sequence of meox2_human MEOX2, P50222 (P50222 whole entry): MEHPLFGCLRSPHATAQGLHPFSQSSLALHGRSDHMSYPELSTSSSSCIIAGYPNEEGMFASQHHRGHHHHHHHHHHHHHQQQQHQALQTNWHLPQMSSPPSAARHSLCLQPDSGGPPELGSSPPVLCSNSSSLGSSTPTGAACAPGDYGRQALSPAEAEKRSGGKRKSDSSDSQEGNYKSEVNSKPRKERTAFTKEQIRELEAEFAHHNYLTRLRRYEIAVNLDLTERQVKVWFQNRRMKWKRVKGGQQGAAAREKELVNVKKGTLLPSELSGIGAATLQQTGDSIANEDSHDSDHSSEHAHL

| Variant | effect of a mutation on the interaction |
| --- | --- |
| V107G | disrupting interaction strength |
